Experiments:
[1] = target: anti-IL-13 IgG4 variant VH Y98L (human (humanized antibody)); assay: SPR
[2] = target: human IL-13 (Homo sapiens) (UniProt P35225); assay: SPR

Kd [1] [nM] | koff [1] [s⁻¹] | kon [1] [M⁻¹ s⁻¹] | kon [2] [M⁻¹ s⁻¹] | Kd [2] [nM] | koff [2] [s⁻¹] | Substance
0.0753 | 8.76e-05 | 1.16e+06 |  |  |  | human IL-13 (from UniProt P35225 25-146) (ligand)
 |  |  | 2.16e+06 |  |  | anti-IL-13 IgG4 (lebrikizumab), parent (antibody)
 |  |  |  | 3.32 | 0.00331 | anti-IL-13 IgG4 variant VH Y100Q (antibody)
 |  |  | 2.08e+06 | < 0.01 | < 0.0001 | anti-IL-13 IgG4 variant VH Y97L (antibody)

From PMC6927759
